Reference: article PMC9680306

Legend:
Test in all cases: co-IP; anti-ARMS (mouse, MA1-90667) coupled MagPlex microspheres incubated overnight with cleared RIPA lysates of transfected HEK293 cells; bound TRPV1, ARMS or AKAP79 detected with rabbit antibodies and anti-rabbit-PE on FLEXMAP 3D (MFI); interaction ratio = TRPV1 MFI divided by ARMS MFI; cells untreated or treated with forskolin 50 uM + IBMX 100 uM, H89 10 uM or BPKDi 1 uM
[1] = target: ARMS_(S1526/27) (ARMS mutant keeping only the PKA site S1526/27) (rat) (UniProt Q9EQG6)
[2] = target: ARMS_(S1439/40) (ARMS mutant keeping only the PKA site S1439/40) (rat) (UniProt Q9EQG6)
[3] = target: ARMS0 (ARMS with all potential PKA sites mutated to alanine) (rat) (UniProt Q9EQG6)
[4] = target: ARMS_(T903) (ARMS mutant keeping only the PKA site T903) (rat) (UniProt Q9EQG6)
[5] = target: Ankyrin-rich membrane spanning protein (ARMS), wild type (rat) (UniProt Q9EQG6)
[6] = target: ARMS_(S1251/52) (ARMS mutant keeping only the PKA site S1251/52) (rat) (UniProt Q9EQG6)
[7] = target: ARMS_(S882) (ARMS mutant keeping only the PKA site S882) (rat) (UniProt Q9EQG6)

transient receptor potential vanilloid 1 (TRPV1)-YFP (from UniProt O35433 1-838)
TRPV1 MFI / ARMS MFI in the ARMS precipitate, cells treated with BPKDi [1]: 25% | TRPV1 MFI / ARMS MFI in the ARMS precipitate, cells treated with H89 [1]: 36% | TRPV1 MFI / ARMS MFI in the ARMS precipitate, cells treated with forskolin + IBMX [1]: 63% | TRPV1 MFI / ARMS MFI in the ARMS precipitate, untreated cells [1]: 60% | TRPV1 MFI / ARMS MFI in the ARMS precipitate, cells treated with BPKDi [2]: 3% | TRPV1 MFI / ARMS MFI in the ARMS precipitate, cells treated with H89 [2]: 4% | TRPV1 MFI / ARMS MFI in the ARMS precipitate, cells treated with forskolin + IBMX [2]: 6% | TRPV1 MFI / ARMS MFI in the ARMS precipitate, untreated cells [2]: 7% | TRPV1 MFI / ARMS MFI in the ARMS precipitate, cells treated with BPKDi [3]: 2% | TRPV1 MFI / ARMS MFI in the ARMS precipitate, cells treated with H89 [3]: 4% | TRPV1 MFI / ARMS MFI in the ARMS precipitate, cells treated with forskolin + IBMX [3]: 6% | TRPV1 MFI / ARMS MFI in the ARMS precipitate, untreated cells [3]: 5% | TRPV1 MFI / ARMS MFI in the ARMS precipitate, cells treated with BPKDi [4]: 4% | TRPV1 MFI / ARMS MFI in the ARMS precipitate, cells treated with H89 [4]: 7% | TRPV1 MFI / ARMS MFI in the ARMS precipitate, cells treated with forskolin + IBMX [4]: 9% | TRPV1 MFI / ARMS MFI in the ARMS precipitate, untreated cells [4]: 12% | TRPV1 MFI / ARMS MFI in the ARMS precipitate, cells treated with BPKDi [5]: 3% | TRPV1 MFI / ARMS MFI in the ARMS precipitate, cells treated with H89 [5]: 4% | TRPV1 MFI / ARMS MFI in the ARMS precipitate, cells treated with forskolin + IBMX [5]: 9% | TRPV1 MFI / ARMS MFI in the ARMS precipitate, untreated cells [5]: 9% | TRPV1 MFI / ARMS MFI in the ARMS precipitate, cells treated with BPKDi [6]: 5% | TRPV1 MFI / ARMS MFI in the ARMS precipitate, cells treated with H89 [6]: 6% | TRPV1 MFI / ARMS MFI in the ARMS precipitate, cells treated with forskolin + IBMX [6]: 18% | TRPV1 MFI / ARMS MFI in the ARMS precipitate, untreated cells [6]: 15% | TRPV1 MFI / ARMS MFI in the ARMS precipitate, cells treated with BPKDi [7]: 4% | TRPV1 MFI / ARMS MFI in the ARMS precipitate, cells treated with H89 [7]: 5% | TRPV1 MFI / ARMS MFI in the ARMS precipitate, cells treated with forskolin + IBMX [7]: 7% | TRPV1 MFI / ARMS MFI in the ARMS precipitate, untreated cells [7]: 10%
